Measurements taken from article PMC8184587.

T1: BRM AT (AT-hook alone) (Homo sapiens, UniProt P51531 1358-1377)
T1 chain: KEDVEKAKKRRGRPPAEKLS


Experiments:
BRM AT-L-BD WT (BRM-B) [1] = molecular target: T2, BRM AT-L-BD WT (BRM-B) (Homo sapiens, UniProt P51531-2 1358-1490); assay: fluorescence anisotropy
AT-LANAA-BD = AT-LANAA-BD (Homo sapiens, UniProt P51531-2 1358-1490, P1378A;P1380A;P1381A); assay: fluorescence anisotropy
BRM AT (AT-hook alone) = molecular target: T1, BRM AT (AT-hook alone); assay: NMR
ATGGGP-L-BD = ATGGGP-L-BD (Homo sapiens, UniProt P51531-2 1358-1490, R1368G;R1370G); assay: NMR
ATDGDP-L-BD = ATDGDP-L-BD (Homo sapiens, UniProt P51531-2 1358-1490, R1368D;R1370D); assay: NMR
BRM AT-L-BD WT (BRM-B) [2] = molecular target: T2, BRM AT-L-BD WT (BRM-B); assay: NMR

Row | Binder | Kd (BRM AT-L-BD WT (BRM-B) [1]) | Kd (AT-LANAA-BD) | Kd (BRM AT (AT-hook alone)) | Kd (ATGGGP-L-BD) | Kd (ATDGDP-L-BD) | Kd (BRM AT-L-BD WT (BRM-B) [2])
1 | DNA.FA 12 bp dsDNA (dsDNA) DNA 1: CCTCAATTGGTC DNA 2: GACCAATTGAGG | 8 ± 1 µM | 4 ± 1 µM |  |  |  | 
2 | 10 bp NMR dsDNA (dsDNA) DNA 1: CTCAATTGGT DNA 2: ACCAATTGAG |  |  | 220 ± 30 µM | 130 ± 30 µM | 410 ± 70 µM | ~3 µM
